Test results published in patent publication US20220298218A1 (ANTAG THERAPEUTICS, published 2022).

T1: human GIP receptor (human, UniProt P48546 22-466)
T1 sequence (looked up): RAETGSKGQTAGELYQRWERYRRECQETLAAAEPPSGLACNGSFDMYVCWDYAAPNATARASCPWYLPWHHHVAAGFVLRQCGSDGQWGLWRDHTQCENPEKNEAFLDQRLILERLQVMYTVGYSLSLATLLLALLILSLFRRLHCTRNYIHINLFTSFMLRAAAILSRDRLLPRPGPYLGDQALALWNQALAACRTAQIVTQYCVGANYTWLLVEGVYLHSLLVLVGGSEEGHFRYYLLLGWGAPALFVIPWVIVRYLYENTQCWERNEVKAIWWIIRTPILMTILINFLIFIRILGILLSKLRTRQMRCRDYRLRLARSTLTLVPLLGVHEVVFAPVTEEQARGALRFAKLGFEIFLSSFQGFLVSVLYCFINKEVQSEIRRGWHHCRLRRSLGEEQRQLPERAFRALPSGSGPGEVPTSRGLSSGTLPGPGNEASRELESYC

B1: AT460 (peptide)
peptide: TFISDYKIAMDKIHQQDFVNWLLAQKGKKNDWKH
HELM: PEPTIDE1{T.F.I.S.D.Y.K.I.A.M.D.K.I.H.Q.Q.D.F.V.N.W.L.L.A.Q.K.G.K.K.N.D.W.K.H}|PEPTIDE2{[O=C(O)CCCCCCCCCCCCCCC(=O)[*:2]].[gGlu]}$PEPTIDE1,PEPTIDE2,7:R3-2:R2$$$V2.0; N-terminus assumed
SMILES: CC[C@H](C)[C@H](NC(=O)[C@H](CCCCNC(=O)CC[C@H](NC(=O)CCCCCCCCCCCCCCC(=O)O)C(=O)O)NC(=O)[C@H](Cc1ccc(O)cc1)NC(=O)[C@H](CC(=O)O)NC(=O)[C@H](CO)NC(=O)[C@@H](NC(=O)[C@H](Cc1ccccc1)NC(=O)[C@@H](N)[C@@H](C)O)[C@@H](C)CC)C(=O)N[C@@H](C)C(=O)N[C@@H](CCSC)C(=O)N[C@@H](CC(=O)O)C(=O)N[C@@H](CCCCN)C(=O)N[C@H](C(=O)N[C@@H](Cc1c[nH]cn1)C(=O)N[C@@H](CCC(N)=O)C(=O)N[C@@H](CCC(N)=O)C(=O)N[C@@H](CC(=O)O)C(=O)N[C@@H](Cc1ccccc1)C(=O)N[C@H](C(=O)N[C@@H](CC(N)=O)C(=O)N[C@@H](Cc1c[nH]c2ccccc12)C(=O)N[C@@H](CC(C)C)C(=O)N[C@@H](CC(C)C)C(=O)N[C@@H](C)C(=O)N[C@@H](CCC(N)=O)C(=O)N[C@@H](CCCCN)C(=O)NCC(=O)N[C@@H](CCCCN)C(=O)N[C@@H](CCCCN)C(=O)N[C@@H](CC(N)=O)C(=O)N[C@@H](CC(=O)O)C(=O)N[C@@H](Cc1c[nH]c2ccccc12)C(=O)N[C@@H](CCCCN)C(=O)N[C@@H](Cc1c[nH]cn1)C(=O)O)C(C)C)[C@@H](C)CC
B2: AT457 (peptide)
peptide: TFISDYKIAMDKIHQQDFVNWLLAQKGKKN
HELM: PEPTIDE1{T.F.I.S.D.Y.K.I.A.M.D.K.I.H.Q.Q.D.F.V.N.W.L.L.A.Q.K.G.K.K.N}|PEPTIDE2{[O=C(O)CCCCCCCCCCCCCCC(=O)[*:2]].[gGlu]}$PEPTIDE1,PEPTIDE2,7:R3-2:R2$$$V2.0; N-terminus assumed
SMILES: CC[C@H](C)[C@H](NC(=O)[C@H](CCCCNC(=O)CC[C@H](NC(=O)CCCCCCCCCCCCCCC(=O)O)C(=O)O)NC(=O)[C@H](Cc1ccc(O)cc1)NC(=O)[C@H](CC(=O)O)NC(=O)[C@H](CO)NC(=O)[C@@H](NC(=O)[C@H](Cc1ccccc1)NC(=O)[C@@H](N)[C@@H](C)O)[C@@H](C)CC)C(=O)N[C@@H](C)C(=O)N[C@@H](CCSC)C(=O)N[C@@H](CC(=O)O)C(=O)N[C@@H](CCCCN)C(=O)N[C@H](C(=O)N[C@@H](Cc1c[nH]cn1)C(=O)N[C@@H](CCC(N)=O)C(=O)N[C@@H](CCC(N)=O)C(=O)N[C@@H](CC(=O)O)C(=O)N[C@@H](Cc1ccccc1)C(=O)N[C@H](C(=O)N[C@@H](CC(N)=O)C(=O)N[C@@H](Cc1c[nH]c2ccccc12)C(=O)N[C@@H](CC(C)C)C(=O)N[C@@H](CC(C)C)C(=O)N[C@@H](C)C(=O)N[C@@H](CCC(N)=O)C(=O)N[C@@H](CCCCN)C(=O)NCC(=O)N[C@@H](CCCCN)C(=O)N[C@@H](CCCCN)C(=O)N[C@@H](CC(N)=O)C(=O)O)C(C)C)[C@@H](C)CC
B3: AT456 (peptide)
peptide: TFISDYKIAMDKIHQQDFVNWLLAQKGK
HELM: PEPTIDE1{T.F.I.S.D.Y.K.I.A.M.D.K.I.H.Q.Q.D.F.V.N.W.L.L.A.Q.K.G.K}|PEPTIDE2{[O=C(O)CCCCCCCCCCCCCCC(=O)[*:2]].[gGlu]}$PEPTIDE1,PEPTIDE2,7:R3-2:R2$$$V2.0; N-terminus assumed
SMILES: CC[C@H](C)[C@H](NC(=O)[C@H](CCCCNC(=O)CC[C@H](NC(=O)CCCCCCCCCCCCCCC(=O)O)C(=O)O)NC(=O)[C@H](Cc1ccc(O)cc1)NC(=O)[C@H](CC(=O)O)NC(=O)[C@H](CO)NC(=O)[C@@H](NC(=O)[C@H](Cc1ccccc1)NC(=O)[C@@H](N)[C@@H](C)O)[C@@H](C)CC)C(=O)N[C@@H](C)C(=O)N[C@@H](CCSC)C(=O)N[C@@H](CC(=O)O)C(=O)N[C@@H](CCCCN)C(=O)N[C@H](C(=O)N[C@@H](Cc1c[nH]cn1)C(=O)N[C@@H](CCC(N)=O)C(=O)N[C@@H](CCC(N)=O)C(=O)N[C@@H](CC(=O)O)C(=O)N[C@@H](Cc1ccccc1)C(=O)N[C@H](C(=O)N[C@@H](CC(N)=O)C(=O)N[C@@H](Cc1c[nH]c2ccccc12)C(=O)N[C@@H](CC(C)C)C(=O)N[C@@H](CC(C)C)C(=O)N[C@@H](C)C(=O)N[C@@H](CCC(N)=O)C(=O)N[C@@H](CCCCN)C(=O)NCC(=O)N[C@@H](CCCCN)C(=O)O)C(C)C)[C@@H](C)CC
B4: AT455 (peptide)
peptide: TFISDYKIAMDKIHQQDFVNWLLAQKG
HELM: PEPTIDE1{T.F.I.S.D.Y.K.I.A.M.D.K.I.H.Q.Q.D.F.V.N.W.L.L.A.Q.K.G}|PEPTIDE2{[O=C(O)CCCCCCCCCCCCCCC(=O)[*:2]].[gGlu]}$PEPTIDE1,PEPTIDE2,7:R3-2:R2$$$V2.0; N-terminus assumed
SMILES: CC[C@H](C)[C@H](NC(=O)[C@H](CCCCNC(=O)CC[C@H](NC(=O)CCCCCCCCCCCCCCC(=O)O)C(=O)O)NC(=O)[C@H](Cc1ccc(O)cc1)NC(=O)[C@H](CC(=O)O)NC(=O)[C@H](CO)NC(=O)[C@@H](NC(=O)[C@H](Cc1ccccc1)NC(=O)[C@@H](N)[C@@H](C)O)[C@@H](C)CC)C(=O)N[C@@H](C)C(=O)N[C@@H](CCSC)C(=O)N[C@@H](CC(=O)O)C(=O)N[C@@H](CCCCN)C(=O)N[C@H](C(=O)N[C@@H](Cc1c[nH]cn1)C(=O)N[C@@H](CCC(N)=O)C(=O)N[C@@H](CCC(N)=O)C(=O)N[C@@H](CC(=O)O)C(=O)N[C@@H](Cc1ccccc1)C(=O)N[C@H](C(=O)N[C@@H](CC(N)=O)C(=O)N[C@@H](Cc1c[nH]c2ccccc12)C(=O)N[C@@H](CC(C)C)C(=O)N[C@@H](CC(C)C)C(=O)N[C@@H](C)C(=O)N[C@@H](CCC(N)=O)C(=O)N[C@@H](CCCCN)C(=O)NCC(=O)O)C(C)C)[C@@H](C)CC
B5: AT458 (peptide)
peptide: TFISDYKIAMDKIHQQDFVNWLLAQKGKKND
HELM: PEPTIDE1{T.F.I.S.D.Y.K.I.A.M.D.K.I.H.Q.Q.D.F.V.N.W.L.L.A.Q.K.G.K.K.N.D}|PEPTIDE2{[O=C(O)CCCCCCCCCCCCCCC(=O)[*:2]].[gGlu]}$PEPTIDE1,PEPTIDE2,7:R3-2:R2$$$V2.0; N-terminus assumed
SMILES: CC[C@H](C)[C@H](NC(=O)[C@H](CCCCNC(=O)CC[C@H](NC(=O)CCCCCCCCCCCCCCC(=O)O)C(=O)O)NC(=O)[C@H](Cc1ccc(O)cc1)NC(=O)[C@H](CC(=O)O)NC(=O)[C@H](CO)NC(=O)[C@@H](NC(=O)[C@H](Cc1ccccc1)NC(=O)[C@@H](N)[C@@H](C)O)[C@@H](C)CC)C(=O)N[C@@H](C)C(=O)N[C@@H](CCSC)C(=O)N[C@@H](CC(=O)O)C(=O)N[C@@H](CCCCN)C(=O)N[C@H](C(=O)N[C@@H](Cc1c[nH]cn1)C(=O)N[C@@H](CCC(N)=O)C(=O)N[C@@H](CCC(N)=O)C(=O)N[C@@H](CC(=O)O)C(=O)N[C@@H](Cc1ccccc1)C(=O)N[C@H](C(=O)N[C@@H](CC(N)=O)C(=O)N[C@@H](Cc1c[nH]c2ccccc12)C(=O)N[C@@H](CC(C)C)C(=O)N[C@@H](CC(C)C)C(=O)N[C@@H](C)C(=O)N[C@@H](CCC(N)=O)C(=O)N[C@@H](CCCCN)C(=O)NCC(=O)N[C@@H](CCCCN)C(=O)N[C@@H](CCCCN)C(=O)N[C@@H](CC(N)=O)C(=O)N[C@@H](CC(=O)O)C(=O)O)C(C)C)[C@@H](C)CC
B6: AT459 (peptide)
peptide: TFISDYKIAMDKIHQQDFVNWLLAQKGKKNDWK
HELM: PEPTIDE1{T.F.I.S.D.Y.K.I.A.M.D.K.I.H.Q.Q.D.F.V.N.W.L.L.A.Q.K.G.K.K.N.D.W.K}|PEPTIDE2{[O=C(O)CCCCCCCCCCCCCCC(=O)[*:2]].[gGlu]}$PEPTIDE1,PEPTIDE2,7:R3-2:R2$$$V2.0; N-terminus assumed
SMILES: CC[C@H](C)[C@H](NC(=O)[C@H](CCCCNC(=O)CC[C@H](NC(=O)CCCCCCCCCCCCCCC(=O)O)C(=O)O)NC(=O)[C@H](Cc1ccc(O)cc1)NC(=O)[C@H](CC(=O)O)NC(=O)[C@H](CO)NC(=O)[C@@H](NC(=O)[C@H](Cc1ccccc1)NC(=O)[C@@H](N)[C@@H](C)O)[C@@H](C)CC)C(=O)N[C@@H](C)C(=O)N[C@@H](CCSC)C(=O)N[C@@H](CC(=O)O)C(=O)N[C@@H](CCCCN)C(=O)N[C@H](C(=O)N[C@@H](Cc1c[nH]cn1)C(=O)N[C@@H](CCC(N)=O)C(=O)N[C@@H](CCC(N)=O)C(=O)N[C@@H](CC(=O)O)C(=O)N[C@@H](Cc1ccccc1)C(=O)N[C@H](C(=O)N[C@@H](CC(N)=O)C(=O)N[C@@H](Cc1c[nH]c2ccccc12)C(=O)N[C@@H](CC(C)C)C(=O)N[C@@H](CC(C)C)C(=O)N[C@@H](C)C(=O)N[C@@H](CCC(N)=O)C(=O)N[C@@H](CCCCN)C(=O)NCC(=O)N[C@@H](CCCCN)C(=O)N[C@@H](CCCCN)C(=O)N[C@@H](CC(N)=O)C(=O)N[C@@H](CC(=O)O)C(=O)N[C@@H](Cc1c[nH]c2ccccc12)C(=O)N[C@@H](CCCCN)C(=O)O)C(C)C)[C@@H](C)CC

These binders were tested against T1, human GIP receptor (assay: cell-based or functional assay).
With B1 the “cAMP antagonism” value was 40 nM, the “cAMP antagonism % inhib” value was 100% and the cAMP antagonism log was -7.4 log M. With B2 the “cAMP antagonism” value was 14 nM, the “cAMP antagonism % inhib” value was 100% and the cAMP antagonism log was -7.9 log M. For B3, the “cAMP antagonism” value was 60 nM, the “cAMP antagonism % inhib” value was 85% and the cAMP antagonism log was -7.2 log M. For B4, the “cAMP antagonism” value was 31 nM, the “cAMP antagonism % inhib” value was 95% and the cAMP antagonism log was -7.5 log M. For B5, the “cAMP antagonism” value was 38 nM, the “cAMP antagonism % inhib” value was 100% and the cAMP antagonism log was -7.4 log M. In the case of B6, the “cAMP antagonism” value is reported as 31 nM, the “cAMP antagonism % inhib” value is reported as 88% and the cAMP antagonism log is reported as -7.5 log M.
